Experimental findings from patent EP1188448A2 are described below.

The experiment concerns the target FGF receptors. As to the kind of experiment: cell-based or functional assay.

With “bFGF-SAP fusion protein (FGF-Ala-Met-SAP), wild type”, the ID50, cytotoxicity on SK-Mel-28 cells (72 h, MTT) was found to be 0.6 nM; the ID50, inhibition of proliferation of serum stimulated rabbit keratocytes (3 h) is 1 to 10 nM; the ID50, inhibition of rabbit keratocyte proliferation (48 h) came to 0.2 nM.

“wild type bFGF-SAP chemical conjugate (heterogeneous FGF-SAP) (from UniProt P20656 25-277)”: the ED50, cytotoxicity on SK-MEL-28 cells was determined as 8 ng/mL; the ID50, cytotoxicity on SK-Mel-28 cells (72 h, MTT) was 0.3 nM; the ID50, inhibition of proliferation of serum stimulated rabbit keratocytes (3 h) lay within 1 to 10 nM; the ID50, inhibition of rabbit keratocyte proliferation (48 h) amounted to 0.1 nM.
